Laboratory results reported in US20200317768A1 (published 2020).
Where a chain is given by its changes, count along the chain named. In names and notes the source's numbering stands.

T1: cynomolgus monkey FcγRIIa1 extracellular domain, His-tagged (cynomolgus monkey)
T1 construct: also called cyno FcgRIIa1; cynoFcγRIIa1; not shown: His-tag added to the C-terminus
T1 chain: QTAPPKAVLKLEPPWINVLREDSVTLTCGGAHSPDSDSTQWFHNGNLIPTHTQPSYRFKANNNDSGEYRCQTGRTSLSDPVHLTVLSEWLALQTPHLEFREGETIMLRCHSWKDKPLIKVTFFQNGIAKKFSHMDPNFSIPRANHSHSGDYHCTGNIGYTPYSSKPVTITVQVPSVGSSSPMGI

T2: cynomolgus monkey FcγRIIa3 extracellular domain, His-tagged (cynomolgus monkey)
T2 construct: also called cyno FcgRIIa3; cynoFcγRIIa3; not shown: His-tag added to the C-terminus
T2 chain: T1 chain with P95T, T121A, A128S, H133P, D135N

T3: cynomolgus monkey FcγRIIa2 extracellular domain, His-tagged (cynomolgus monkey)
T3 construct: also called cyno FcgRIIa2; cynoFcγRIIa2; not shown: His-tag added to the C-terminus
T3 chain: T1 chain with P95T, T121A, I127K, A128S, K130N, D135N, R142Q

T4: human FcγRIIaR extracellular domain, His-tagged (human, UniProt P12318 34-217)
T4 construct: also called human FcgRIIaR; FcγRIIa (type R); not shown: His-tag added to the C-terminus
T4 chain: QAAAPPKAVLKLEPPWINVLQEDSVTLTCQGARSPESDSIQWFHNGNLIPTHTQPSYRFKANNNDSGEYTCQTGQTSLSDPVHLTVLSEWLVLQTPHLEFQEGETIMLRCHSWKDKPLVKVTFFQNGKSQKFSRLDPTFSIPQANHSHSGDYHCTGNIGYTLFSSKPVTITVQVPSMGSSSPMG

T5: cynomolgus monkey FcγRIIb extracellular domain, His-tagged (cynomolgus monkey)
T5 construct: also called cyno FcgRIIb; cynoFcγRIIb; not shown: His-tag added to the C-terminus
T5 chain: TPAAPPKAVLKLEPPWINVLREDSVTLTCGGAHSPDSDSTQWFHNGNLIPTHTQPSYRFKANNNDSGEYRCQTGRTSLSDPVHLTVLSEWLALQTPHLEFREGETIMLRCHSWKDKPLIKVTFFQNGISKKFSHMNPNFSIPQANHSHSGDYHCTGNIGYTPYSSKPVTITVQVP

B1: MS1032LO06-SG1 (M103205H795-SG1/M103202L889-SK1) (antibody, human IgG1, kappa)
heavy: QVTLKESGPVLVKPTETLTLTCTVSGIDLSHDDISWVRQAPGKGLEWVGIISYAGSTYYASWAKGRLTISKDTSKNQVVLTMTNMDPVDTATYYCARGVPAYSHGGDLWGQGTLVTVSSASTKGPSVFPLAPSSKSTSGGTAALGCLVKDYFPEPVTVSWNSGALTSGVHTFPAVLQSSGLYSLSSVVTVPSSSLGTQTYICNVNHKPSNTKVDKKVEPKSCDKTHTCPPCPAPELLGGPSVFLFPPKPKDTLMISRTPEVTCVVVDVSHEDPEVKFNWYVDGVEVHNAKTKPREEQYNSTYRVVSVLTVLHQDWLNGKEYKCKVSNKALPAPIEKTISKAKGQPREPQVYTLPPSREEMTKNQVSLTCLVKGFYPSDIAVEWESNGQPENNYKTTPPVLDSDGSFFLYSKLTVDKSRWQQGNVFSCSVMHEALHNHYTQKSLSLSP
light: DIVMTQSPATLSLSPGERATLSCTSSQSVYHANWLSWFQQKPGQPPKLLIYWASTLAYGVPSRFSGSGSGTDFTLTISSLQPEDAATYYCAGGYGGGRYAFGQGTKVEIKRTVAAPSVFIFPPSDEQLKSGTASVVCLLNNFYPREAKVQWKVDNALQSGNSQESVTEQDSKDSTYSLSSTLTLSKADYEKHKVYACEVTHQGLSSPVTKSFNRGEC
notes: Anti-latent myostatin antibody; Parent of the Fc variants; copies: 2 + 2
B2: M103205H795-MY267/M103202L889-SK1 (antibody, human IgG1, kappa)
heavy: QVTLKESGPVLVKPTETLTLTCTVSGIDLSHDDISWVRQAPGKGLEWVGIISYAGSTYYASWAKGRLTISKDTSKNQVVLTMTNMDPVDTATYYCARGVPAYSHGGDLWGQGTLVTVSSASTKGPSVFPLAPSSKSTSGGTAALGCLVKDYFPEPVTVSWNSGALTSGVHTFPAVLQSSGLYSLSSVVTVPSSSLGTQTYICNVNHKPSNTKVDKKVEPKSCDKTHTCPPCPAPELLIGPSVFLFPPKPKDTLMISRTPEVTCVVVDVSDEDPEVKFNWYVDGVEVHNAKTKPREEQYNSTYRVVSVLTVLHQDWLNGKEYKCKVSNKALPKPIEKTISKAKGQPREPQVYTLPPSREEMTKNQVSLTCLVKGFYPSDIAVEWESNGQPENNYKTTPPVLDSDGSFFLYSKLTVDKSRWQQGNVFSCSVMHEALHNHYTQKSLSLSP
light: B1 light
notes: copies: 2 + 2
B3: M103205H795-MY263/M103202L889-SK1 (antibody, human IgG1, kappa)
heavy: B2 heavy with I238Q
light: B1 light
notes: copies: 2 + 2
B4: M103205H795-MY260/M103202L889-SK1 (antibody, human IgG1, kappa)
heavy: B2 heavy with I238M
light: B1 light
notes: copies: 2 + 2
B5: M103205H795-MY265/M103202L889-SK1 (antibody, human IgG1, kappa)
heavy: B2 heavy with I238T
light: B1 light
notes: copies: 2 + 2
B6: M103205H795-MY264/M103202L889-SK1 (antibody, human IgG1, kappa)
heavy: B2 heavy with I238L
light: B1 light
notes: copies: 2 + 2
B7: M103205H795-MY201/M103202L889-SK1 (antibody, human IgG1, kappa)
heavy: B2 heavy with I238N
light: B1 light
notes: Fc variant G236N/H268D/A330K (EU numbering) of SG1; also called MS1032LO06-MY201; copies: 2 + 2
B8: M103205H795-MY261/M103202L889-SK1 (antibody, human IgG1, kappa)
heavy: B2 heavy with I238H
light: B1 light
notes: copies: 2 + 2
B9: M103205H795-MY262/M103202L889-SK1 (antibody, human IgG1, kappa)
heavy: B2 heavy with I238V
light: B1 light
notes: copies: 2 + 2

Target: T1, cynomolgus monkey FcγRIIa1 …
Test: SPR; KD of SG1 divided by KD of the variant;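 note: relative to parent M103205H795-SG1 carrying the SG1 human heavy chain constant region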
Experimental: (§1) Regarding such interactions, KD values were calculated using the following 1:1 binding model described in BIACORE® T100 Software Handbook BR1006-48 Edition AE.
(§2) The behavior of interacting molecules according to the 1:1 binding model on BIACORE® can be described by Equation 1: Req=C·R max/(KD+C)+RI, wherein, Req is a plot of steady-state binding levels to analyte concentration. C is concentration, RI is bulk refractive index contribution in the sample, and Rmax is analyte binding capacity of the surface. When this equation is rearranged, KD can be expressed as Equation 2: KD=C·Rmax/(Req−RI)−C. KD can be calculated by substituting the values of Rmax, RI, and C into Equation 1 or Equation 2. From the current measurement conditions, RI=0, C=2 μmol/L can be used.
(§3) The resultant variants were expressed using M103202L889-SK1 as light chain and their affinity to human and cynoFcγRs were evaluated (Table 21).

In order of falling “KD fold (SG1 = 1)” value:
1. B7  2.3 fold
2. B9  1.7 fold
3. B5  1.5 fold
4. B2  1.3 fold
5. B1  1 fold
6. B3  1 fold
7. B8  0.9 fold
8. B4  0.7 fold
9. B6  0.6 fold

Target: T2, cynomolgus monkey FcγRIIa3 …
Test: SPR; KD of SG1 divided by KD of the variant;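 note: relative to parent M103205H795-SG1 carrying the SG1 human heavy chain constant region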
Experimental: as §1, §2, §3

In order of rising “KD fold (SG1 = 1)” value:
1. B1  1 fold
2. B6  1.1 fold
3. B4  1.2 fold
4. B9  2.1 fold
5. B2  2.3 fold
6. B3  2.3 fold
7. B8  3.1 fold
8. B5  3.5 fold
9. B7  4.4 fold

target: T6, cynomolgus monkey FcγRIIIaS extracellular domain, His-tagged (cynomolgus monkey, UniProt A3RFZ7 21-206 (rhesus entry)); test: SPR; KD of SG1 divided by KD of the variant;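 note: relative to parent M103205H795-SG1 carrying the SG1 human heavy chain constant region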
T6 construct: also called cyno FcgRIIIaS; cynoFcγRIIIaS; not shown: His-tag added to the C-terminus
Experimental: as §1, §2, §3

T6 sequence (A3RFZ7 21-206): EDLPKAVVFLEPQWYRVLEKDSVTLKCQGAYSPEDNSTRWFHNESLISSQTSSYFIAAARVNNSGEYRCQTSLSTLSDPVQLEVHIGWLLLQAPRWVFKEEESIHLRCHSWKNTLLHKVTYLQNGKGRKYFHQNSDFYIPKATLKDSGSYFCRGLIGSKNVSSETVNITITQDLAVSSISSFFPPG

In order of falling “KD fold (SG1 = 1)” value:
1. B1  1 fold
2. B4  0.55 fold
3. B3  0.46 fold
4. B5  0.18 fold
5. B8  0.15 fold
6. B2  0.13 fold
7. B9  0.13 fold
8. B6  0.1 fold
9. B7  0.06 fold

Target: T3, cynomolgus monkey FcγRIIa2 …
Test: SPR; KD of SG1 divided by KD of the variant;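 note: relative to parent M103205H795-SG1 carrying the SG1 human heavy chain constant region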
Experimental: as §1, §2, §3

In order of rising “KD fold (SG1 = 1)” value:
1. B6  0.9 fold
2. B1  1 fold
3. B8  1.3 fold
4. B4  1.4 fold
5. B3  1.7 fold
6. B2  2.6 fold
7. B5  2.7 fold
8. B9  3 fold
9. B7  3.6 fold

Target: T4, human FcγRIIaR extracellular domain, …
Test: SPR; KD of SG1 divided by KD of the variant
Experimental: as §1, §2, §3

In order of falling “KD fold (SG1 = 1)” value:
1. B2  2.5 fold
2. B5  2.5 fold
3. B3  1.5 fold
4. B9  1.5 fold
5. B1  1 fold
6. B8  1 fold
7. B4  0.6 fold
8. B7  0.6 fold
9. B6  0.5 fold

Target: T5, cynomolgus monkey FcγRIIb extracellular …
Test: SPR; KD of SG1 divided by KD of the variant
Experimental: as §1, §2, §3

In order of rising “KD fold (SG1 = 1)” value:
1. B6  0.7 fold
2. B1  1 fold
3. B4  1.1 fold
4. B8  1.2 fold
5. B3  1.8 fold
6. B2  2.1 fold
7. B5  3.1 fold
8. B9  3.2 fold
9. B7  4.2 fold
